The RNAGym collection of RNA variant scans (doi:10.1073/pnas.2313332121)
Variants at the floor of the assay were thinned out.

B1: TPR 5TU (parent)
chain: GGAUCUUCUCGAUCUAACAAAAAAGACAAAUCUGCCACAAAGCUUGAGAGCAUCUUCGGAUGCAGAGGCGGCAGCCUUCGGUGGCGCGAUAGCGCCAACGUUCUCAACUAUGACACGCAAAACGCGUGCUCCGUUGAAUGGAGUUUAUCAUG

Variants of: B1
Test: polymerase ribozyme fitness, log enrichment relative to wild type (log ratio); higher = more active; in vitro selection for triplet polymerase activity
How it was run: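 One round of in vitro selection, in triplicate, was applied to PCR-built, transcribed mutant libraries of each subunit of a heterodimeric triplet polymerase ribozyme. The steps were annealing with a biotinylated primer, partner subunit and triplets, incubation frozen at −7 °C, gel excision of extended constructs, streptavidin-bead capture and RT-PCR. Fitness is the logarithm, base 2, of genotype enrichment over wild-type enrichment from inverse-variance-weighted replicate averages of Illumina-sequenced inputs and outputs, keeping genotypes with ≥10 input reads and ≥1 read per output.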

| Variant | polymerase ribozyme fitness (log ratio) |
| --- | --- |
| GGAUCUUCUCGAUCUAACAAAAAAGAGAAAUCUGCCACAAAGCUUGAGAGCAUCUUCGGAUGCAGAGGCGGCAGCCUUCGGUGGAGCGAGAGCGCCAACGUUCUCAACUAUGACACGCAAAACGCGUGCUCCGUUGAAUGGAGUUUAUCAUG | ≤ -4.2 |
| GGAUCUUUUCGAUCUAACAAAAAAGACAAAUCUGCCACAAAGCUUGAGAUCAUCUUCGGAUGCAGAGGCGCCAGCCUUCGGUGGGGCGAUAGCGCCAACGUUCUCAACUAUGACACGCAAAACGCGUGCUCCGUUGAAUGGAGUUUAUCAUG | ≤ -4.2 |
| GGAUCUUCUCGAUCUAACAAAAAAGACAAAUCUGCCACAAAGCAUGAGAGCAUCUUCGGAUGCAGAGGCGGCAGCCUUCGGUGGCGCGAUAGCGCCAACGUUCUCAACUAUGACACGCAAAACGCGUGCUCCGAUGAAUGGAGUUUAUCAUG | ≤ -4.2 |
| GGAUCUUCUCGAUCUAACAAAAAAGACAAAUCUGCCACAAAGCUAGAGAGCAUCUUCGGGUGCAGAGGCGGCAGCCUUCGGUGGCGCGAUAGCGCCAACGUUCUCAACUAUGACACGCAAAACGCGUGCUCCGUUGAAUGGAGUUUAUCAUG | -2.47 |
| GGAUCUUCUCGAUCUAACAAAAAAGACAAAUCUGCCACAAAGCUUGAGAGCAUCUUCGGAUGCAGAGGCGGCAGCCUUCGGUGGCGCGAUAACGCCAACGUUCUCAACUAUGACACGCAAAACACGUGCUCCGUUGAAUGGAGUUUAUCAUG | -2.65 |
| GGAUCUUCUCGAUCUAACAAAAAAGACAAAUCUGCCACAAAGCUUGAGAGCAUCUUCGGAUGCAGAGGCGGCAGCCUUCGGUGGCGCGAUAGCGCCAACGUUCUCAACUAUGACACGCAAAACACGUGCUCCGUUGAAUGGAGUUUAUCAUG | -0.246 |
| GGAUCUUCUCGAUCUAACAAAAAAGACAAAUCUGCCACUAAGCUUGAGAGCAACUUCGGAUGCAGAGGCGGCAGCCUUCGGUGGCGCGAUAGCGCCAACGUUCUCAACUAUGACACGCAAAACGCGUGCUCCGUUGAAUGGAGUUUAUCAUG | -2.91 |
| GGAUCUUCUCGAUCUUACAAAAAAGACAAAUCUGCCACAAAGCUUGAGAGCAUCUUCGCAUGCAGAGGCGGCAGCCUUCGGUGGCGCGAUAGCGCCAACGUUCUCAACUAUGACACGCAAAACGCGUGCUCCGUUGAAUGGAGUUUAUCUUG | -0.494 |
| GGAUCUUCUCGAUCUAACAAAAAAGACAAAUCUGCCACAAAGCUUGAGAGCAUCUUCGGAUGCAGAGGCGGCAGCCUUCGGUGGCGCGAUAGCGCCAACGUUCUCAACUAUGACACGCAAAACGCGUGCUCCGUUGAAUGUAGUUAAUCAUG | 0.37 |
| GGAUCUUCUCGAUCUAACAAAAAGGACAAAUCUGCCACAAAGCUUGAGAGCCUCUUCGGAUGCAGAGACGGCAGCCUUCGGUGGCGCGAUAGCGCCAACGUUCUCAACUAUGACACGCAAAACGCGUGCUCCGUUGAAUGGAGUUUAUCAGG | ≤ -4.2 |
| GGAUCUUCUCGAUCUAUCAAAAAAGACAAAUCUGCCACAAAGCUUGAGAGCAUCUUCGGAUGCAGAGGCGGCAGCCUUCGGUGGCGCGAUAGAGCCAACGUUCUCAACUAUGACACGCAAAACGCGUGCUCCGUUGAAUGGAGUUUAUCAUG | -2.74 |
| GGAUCUUCUCGAUCUAACAAAAAAGACAAAUCUGCCACAAUGCUUGAGAGAAUCUUCGGAUGCAGAGGCGGCAGCCUUCGGUGGCCCCAUAGCGCCAACGUUCUCAACUAUGACACGCAAAACGCGUGCUCCGUUGAAUGGAGUUUAUCAUG | ≤ -4.2 |
| GGAUCUUCUCGAUCUAACAAAAAAGACAAAUCAGCCACAAAGUUUGAGAGCAUCUUCGGUUGCAGAGGCGGCAGCCUUCGGUGGCGCGAUAGAGCUAACGUUCUCAACUAUGACACGCAAAACGCGUGCUCCGUUGAAUGGAGUUUAUCACA | ≤ -4.2 |
| GGAUCUUCUCGAUCUAACAAAAAAGACAAAUCUGCCACAAAGCUUGAGAGCAUCUUCGGAUGCAGAGCCGGCAGCCUUCGGUCGCGCGAUAGCGCCAACGUUCUCAACUAUGACACGCAAAACGCGUGCUCCGUUGAAUGGAGUUUAUCAUG | ≤ -4.2 |
| GGAUCUUCUCGAUCCAACAAAAAAGACAAAUCUGCCACAAGGCUUGAGAGCAUCUUCGGAGGCAGAGGCGGCAGCCUUCGGUGGCGCGAUAGCGCCAAUGUUCUCAACUAUGACACGCAAAACGCGUGCUCCGUUGAAUGGAGUUUAUCAUG | -2.24 |
| GGAUCUUCUCGAUCUAACAAAAAUGACAAAUCUGCCACAAAGCUUGAGAGCAUCUUCGGAUGCAGAGGCGGUAGCCUUCGGUGUCGCGAUAGCGCCAACGUUCUCAACUAUGACACGUAAAACGCGUGCUCCGUUGAAUGGGGUUUAUCAUG | -3.98 |
| GGAUCUUCUCGAUCUAACAAAAAAGACAAAUCUGCCACAAAGCUUGAGAGCAUCUUCUGAUGCAGAGGCGGCAGCCUUCGGUGGCGCGAUAGCUCCAACGUUCUCAACUAUGACACGCAAAACGCGUGCUCCGUUGAAUUGAGUUUAUCAUG | -3.9 |
| GGAUCUUCUCGAUCUAACAAAAAAGACAAAUCUGCCAAAAAGCUUGAGAGCAUCUUCGGAUGCAGAGGCGGCAGCCUUCGGUAGCGCGAUAGCGCCAACGUUCUCAACUAUGACACGCAAAACGCGUGCUCCGUUGAAUGGAGUUUAUCAUG | -0.746 |
| GGAUCUUCUCGAUCUAACAAAAAAGACAAAUCUGCCACAAAGCUUGAGAGCAUCUUCGGAUGCAGAGGCGGCAGCCAUCGGUGGCGCGAUAGCGUCAACGUUCUCAACUAUGACACGCAAAACGCGUGCUCCGUUGAAUGGAGUUUAUCAUG | ≤ -4.2 |

| Variant | polymerase ribozyme fitness (log ratio) |
| --- | --- |
| GGAUCUUCUCGAUCUAACAGAAAAGAGAUAUCUGCCACAAAGCUUGAGAGCAUCUUCGGAUGCAGAGGCGGCAGCCUUCGGUGGCGCGAUAGCGCCGACGUUCUCAACUAUGACACGCAGAACGCGUGCUCCGUUGAAUGGAGUUGAUCAUG | -4.06 |
| GGAUCUUCUCGAUCUAACAAAAAAGACAAAUCUGCCAAAAAGCUUGAGAGCAUCUUCAGGUGCAGAGGCGGCAGCCUUCGGUGGCGCGAUAGUGACAACGUUCUCAACUAUGACACGCAAAACGGGUGCUCCGUUGAAUGGAGUUUAUCAUG | -3.67 |
| GGAUCUUCUCGAUCUAACAAAAAAGACAAAUCUGCCACAAAGCUUGAGAGCAUCUUCGGAUGCAGAGGCGGCAGCCUUCGGUGGCGCGAUAGCGCGAACGUUCUCAACUAUGACACGCAAAACGCGUGCUCCGUUGAAUGAAGUUUAUCAUG | -0.288 |
| GGAUCUUCUCGAUCUAACAAAAAAGACAAAUCUGCCACAAAGCUUGAGAGCAUCUUCGGAUGCAGAGGCGGCAGCCUUCGGUGGCGCGAUAGCGCCAACGUUCUCAACUAUGACACGCAAGACGCGUGCUCCGUUGAAUGGAAUUUUUCAUG | -1.46 |
| GGAUCUUCUCGGUCUAACAAAAAAGACAAAUCUGCCACAAAGCUUGAGAGCAUCUUCGGAUGCAGAGGCGGCAGCCUUCGGUGGCGCGAUAGGGCCAACGUUCUCAACUAUGACACGCAAAACGCGUGCUCCGUUGAAUGGAGUUUAUCAUG | -2.99 |
| GGAUCUUCUCGAUCAAACAAAAAAGACAAAUCUGCCACAAAGCUUGAGAGCAUCUUCAGAUGCAGAGGCGGCAGCCUUCGGUGGCACGAUAGCGCCAACGUUCUCAACUAUGACACGCAAAACGCGUGCUCCGUUGAAUGGAGGUUAUCAUG | 0.552 |
| GGAUCUUCUCGAUCUAACAAAAAAGACAAAUCUGCCACAAAGCUUGAGAGCAUCUUCGGAUGCAGAGGCGGCAGCCUUCGGUGGCGCGAUAGCACCAACGUUCUCAACUAUGUCACGCAUAACGCGUGCUCCGUUGAAUGGAGUUUAUCAUG | -1.56 |
| GGAUCUUCUCGAUCUAACGAAAAAGACAAAUCUGCCACAAAGCUUGAGAGCAUCUUCGGAUGCAGAGGCGGCAGCCUUCGGUGGCGCGAUAGCGCCAACGUUCUCAACUAUGACACGCAAACCGCGUGCUCCGUUCAAUGGCGUUUAUCAUG | -3.74 |
| GGAUCUUCUCGAUCUACCAAAAAAGACAAAUCUGCCACAAAGCUUGAGAGCAUCUUCUGAUGCAGAGGCGGCAGCCUUCGGUGGCGCGAUAGCGCCAACGUUCUCAACUAUGACACGCAAAACGCGUACUCCGUUGAUUGGAGUUUAUCAUG | -4.13 |
| GGAUGUUCUCGAACUAACAAAAAAGACAAAUCUGCCACAAAGCUUGAGAGCAUCUUCGGAUGCAGAGGCGGCAGCCUUCGGUGGCGCGAUAGCGCCAACGUUCUCAACUAUGACACGCAAAACGCGUGCUCCGUUGAAUGGAGUUUAUCAUG | -1.14 |
| GGAUCUUCUCGAUCUAACAGAAAAGACAAAUCUGCCACAAAGCUUGAGAGCAUCUUCGGAUGCAGAGGCGGCAGCCUUCGGUGGCGCGAUAGCGCCAACGUUCUCAACUAUGACACGCAAAACUCGUGCUCCGUUGAAUGGAGUUUAUCAUG | -0.645 |
| GGAUCUUCUCGAUCUAACAAAAAAGACAAAUCUGCCACAAAGCUUGAGAGCAUCUUCGGAUGCAGAGGCGGCACCCUUCGGUGGCGCGAUAGCGCCAAUGUUCUCAACUAUGACACGCAAAACGCGUGCUCCGUUGAAUGGUGUUAAUCAUG | ≤ -4.2 |
| GGAUCUUCUCGAUCUAACAAAAAAGACAAAUCUGCCACAAAGCUUGAGAGCAUCUUCGGAGGCAGAGGCGGCAGCCUUCGGUGGAGCGAUAGCGCCAACGUUCUCAACUAUGACACGCAAAACGCGUGCUCCGUUGAAUGGACUUUAUCAUG | -3.43 |
| GGAUCUUCUCGAUCUAAGAAAAAAGACAAAUCUGCCACAAAGCUUGAGAGCAACUUCGGAUGCAGAGGCGGCAGCCUUCGGUGGCGCGAUAGCGCCAACGUUCUCAACUAUGACACGCAAAACGCGUGCUCCGUUGAACGGAGUUUAUCAUG | ≤ -4.2 |
| GGAUCUUCUGGAUCUAACAAAAAAGACACUUCUGCCACAAAGCUUGAUAGCAUCAUCGGAUGCAGAGGCGGCAGCCUUCGGUGGCGCGUUAGGGCCAACGUUCUCAACUAUGACACGCAAAACGCGUUCUCCGUUGAAUGGAGUUUAUCAUG | ≤ -4.2 |
| GGAUCUUCUCGAUCUAACAAAAAAGACAAAUCUGCCACAAAGCUUGAGAGCAUCUUCGGAUGCAGAGGCGGCAGCCUUCGGUGGCGCGAUAGCGCCAACGUUGUCAACUAUGACACGCAAAACGCGUGCACCGUUGAAUGGAGUUUAUCAUG | -4.04 |
| GGCUCUUCUGGAUCUAACAAAAAAGACAAAUCUGCCACAAAGCUUGAGAGCAUCUUCGGAUUCAGAGCCGGCAGCCUUCGGUGGCGUGAUAGCGCCAACGUUCUCACCUAUGACACGCAAAAUGCGUACUCCGUUGCACGGAGUUUAUCAUG | ≤ -4.2 |
| GGAUCUUCUCGAUCUAACAAAAAAGACAAAUCUGCCACAAAGCUUGAGAGCAUCUUCGGAUGCAGAGGCGGCAGCCUUCGGUGGCGCGAUAGCGCCAACGUUCUCAACUAUGACACGCAAAACGCGUGCUUCGUUGAAUGGAGUUUACCAUG | -2.73 |
| GGAUCUUCUCGAACUAACAAAAAAGACUAAUCUGCCACAAAGUUUGAGAGCAUCUUCGGAUGCAAAGGCGGCAGCCUUCGGUGGCGCGAUAGCGCCAACGUUCUCGACUAUGACACGCAAAACGCGUGCUCCGUUGAAUGGAGUUUAUCAUG | ≤ -4.2 |
